# According to article PMC9771711 (Science (New York, N.Y.), 2021):
# B1: ADI-36121 (as used in BLI) (antibody, V domains shown)
# VH: EVQLLESGGDLVQPGGSLRLSCAASGFTFSSYVMSWVRQAPGKGLEWVSVIYRGGSTKYADSVKGRFTISRDDSKNTLYLQMNSLRVEDTAVYYCVKDPKAWLEPEWWGQGTLVTVSS
# VL: DIQMTQSPSSLSASVGDRVTITCRASQSISKYLSWFQQKPGKAPNLLIYAASYLQSGVPSRFSGSGSGTDFTLTISSLQPEDFATYYCQQSYSNPRTFGQGTKVEIK
# Molecular target: CCHFV Gc^1579 (Crimean-Congo hemorrhagic fever virus, …)
# Assay: BLI
binder,measurement,value
B1,binding result,binds
